The term Kd denotes a measure of binding affinity in units of concentration.

One assay concerns the target human CSPG5-FLAG_Fc (human). Briefly: phage ELISA, immobilised antigen, anti-M13-HRP. How it is done:
(§1) In the ELISA, human CSPG5-FLAG_Fc and mouse CSPG5-FLAG_Fc were immobilized on MAXISORP (manufactured by NUNC, Inc.), followed by blocking using SuperBlock Blocking Buffer (manufactured by Thermo Fisher Scientific, Inc.). As a negative control, a plate on which Fc was immobilized was also prepared.
(§2) To each well, each phage clone was added and allowed to react at room temperature for 30 minutes, and thereafter, each well was washed with PBS-T. Subsequently, a solution obtained by diluting an anti-M13 antibody (manufactured by GE Healthcare, Inc.) labeled with horseradish peroxidase with PBS-T comprising 10% Block Ace (manufactured by Dainippon Pharmaceutical Co., Ltd.) was added to each well and incubated at room temperature for 30 minutes. After the microplate was washed 3 times with PBS-T, a 3,3′,5,5′-tetramethylbenzidine (TMB) chromogenic substrate solution (manufactured by DAKO, Inc.) was added thereto, followed by incubation at room temperature. The coloring reaction was stopped by adding a 0.5 mol/L sulfuric acid to each well, and an absorbance at a wavelength of 450 nm (reference wavelength: 570 nm) was measured using a microplate reader. […]
(An ELISA detects its analyte on a solid surface through an enzyme-linked reagent.)

Another assay concerns the target mouse CSPG5-FLAG_Fc (mouse). Briefly: phage ELISA, immobilised antigen, anti-M13-HRP. How it is done:
as §1, §2

In another assay the target is T1, monkey CSPG5 (monkey (rhesus monkey), UniProt O95196 31-566 (human entry)).
T1 construct: Full-length gene expressed on Expi293F cells; also called monkey CSPG5/Expi293F cells; rhesus monkey CSPG5
T1 chain: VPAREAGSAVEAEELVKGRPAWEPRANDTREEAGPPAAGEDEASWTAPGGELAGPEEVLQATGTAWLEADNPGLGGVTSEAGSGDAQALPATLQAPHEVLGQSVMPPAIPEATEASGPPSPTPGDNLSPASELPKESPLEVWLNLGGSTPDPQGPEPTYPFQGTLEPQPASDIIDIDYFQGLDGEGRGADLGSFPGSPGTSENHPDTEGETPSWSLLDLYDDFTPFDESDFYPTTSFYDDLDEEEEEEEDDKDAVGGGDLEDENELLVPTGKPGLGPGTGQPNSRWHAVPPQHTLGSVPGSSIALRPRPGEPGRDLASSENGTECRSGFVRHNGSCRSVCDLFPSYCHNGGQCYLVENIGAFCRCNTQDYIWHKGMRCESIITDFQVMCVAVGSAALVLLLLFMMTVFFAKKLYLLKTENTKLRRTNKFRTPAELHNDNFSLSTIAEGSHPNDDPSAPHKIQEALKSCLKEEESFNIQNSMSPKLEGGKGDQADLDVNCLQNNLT
Briefly: FACS, 10 µg/mL antibody, monkey CSPG5/Expi293F vs Expi293F. As for the experimental part:
(§3) Expi293F cells, human CSPG5/Expi293F cells, mouse CSPG5/Expi293F cells, and monkey CSPG5/Expi293F cells were separately suspended in Staining Buffer (SB) of PBS comprising 0.1% NaN₃ and 1% FBS and dispensed in a round-bottom 96-well plate (manufactured by Becton, Dickinson and Company). After centrifugation (2000 rpm, 4° C., 2 minutes), the supernatant was removed, and to the resulting pellet, 10 μg/mL of each antibody obtained in Example 2 was added to suspend the pellet, and the resulting suspension was left to stand for 30 minutes at ice temperature. After further centrifugation (2000 rpm, 4° C., 2 minutes), the supernatant was removed, and the resulting pellet was washed with SB, and thereafter, 1 μg/mL of an RPE fluorescently labeled goat anti-human antibody (manufactured by Southern Biotech, Inc.) was added thereto, and the resultant was incubated for 30 minutes at ice temperature. After washing with SB, the cells were suspended in SB, and the fluorescence intensity of each cell was measured using a flow cytometer FACS CANTO II (manufactured by Becton, Dickinson and Company). Note that as a negative control, 10 μg/mL of the anti-AVM antibody was used.
(§4) The detection results were analyzed, and a mean fluorescence intensity (MFI) was calculated using a geometric mean. Further, with respect to the MFI when the concentration of each antibody was 10 μg/mL, the ratio of the MFI (mean fluorescence intensity ratio) between the human CSPG5/Expi293F cells and the Expi293F cells (parent cell line) was calculated. Also for the monkey CSPG5/Expi293F cells and the mouse CSPG5/Expi293F cells, the mean fluorescence intensity ratio relative to the Expi293F cells (parent cell line) was calculated by the same procedure, and the results are shown in Table 3.
On the technique in general: A flow cytometer gives signals particle by particle.

The target of a further assay is T2, human CSPG5 (human, UniProt O95196 31-566).
T2 construct: Full-length gene expressed on cell membrane (Expi293F, L929); also called human CSPG5/Expi293F cells; human CSPG5/L929#09
T2 sequence: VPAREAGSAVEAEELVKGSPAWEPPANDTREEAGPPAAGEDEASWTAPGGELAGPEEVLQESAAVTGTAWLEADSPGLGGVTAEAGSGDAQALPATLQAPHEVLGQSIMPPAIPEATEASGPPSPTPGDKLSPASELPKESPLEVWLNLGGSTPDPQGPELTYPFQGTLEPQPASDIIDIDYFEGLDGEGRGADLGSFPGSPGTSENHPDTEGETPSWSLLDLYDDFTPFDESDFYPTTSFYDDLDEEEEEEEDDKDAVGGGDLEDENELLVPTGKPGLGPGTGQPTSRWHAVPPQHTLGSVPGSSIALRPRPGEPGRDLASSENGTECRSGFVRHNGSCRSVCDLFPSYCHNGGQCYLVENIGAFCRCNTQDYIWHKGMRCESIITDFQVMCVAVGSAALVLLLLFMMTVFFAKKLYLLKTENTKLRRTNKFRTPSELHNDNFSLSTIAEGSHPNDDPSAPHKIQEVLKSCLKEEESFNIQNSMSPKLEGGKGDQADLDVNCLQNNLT
Briefly: FACS, 10 µg/mL antibody, human CSPG5/Expi293F vs Expi293F. How it is done:
as §3, §4

In the next assay the target is mouse CSPG5-GST (mouse). Briefly: SPR Biacore T-100, antibody captured, mouse CSPG5-GST analyte. As for the experimental part: The affinity of the anti-CSPG5 antibodies, the CSPG5202 IgG4PE(R409K), and the AVM IgG4PE(R409K) CSPG5202 dscFv produced in Example 2 for human CSPG5 and mouse CSPG5 was measured using Biacore T-100 (GE Healthcare).
Each of the antibodies was immobilized on a […] sensor chip using a Human antibody Capture kit, and the binding ability was evaluated using human CSPG5-GST and mouse CSPG5-GST produced in Example 4 as analytes. The obtained sensorgram was analyzed with BIA evaluation software, and the dissociation constant (KD value) was calculated.
(In SPR one partner is held on a chip, and binding of the other changes the refractive index at the surface.)

The target of a further assay is T3, mouse CSPG5 (mouse, UniProt Q71M36 31-566).
T3 construct: Full-length gene expressed on Expi293F cells; also called mouse CSPG5/Expi293F cells
T3 sequence: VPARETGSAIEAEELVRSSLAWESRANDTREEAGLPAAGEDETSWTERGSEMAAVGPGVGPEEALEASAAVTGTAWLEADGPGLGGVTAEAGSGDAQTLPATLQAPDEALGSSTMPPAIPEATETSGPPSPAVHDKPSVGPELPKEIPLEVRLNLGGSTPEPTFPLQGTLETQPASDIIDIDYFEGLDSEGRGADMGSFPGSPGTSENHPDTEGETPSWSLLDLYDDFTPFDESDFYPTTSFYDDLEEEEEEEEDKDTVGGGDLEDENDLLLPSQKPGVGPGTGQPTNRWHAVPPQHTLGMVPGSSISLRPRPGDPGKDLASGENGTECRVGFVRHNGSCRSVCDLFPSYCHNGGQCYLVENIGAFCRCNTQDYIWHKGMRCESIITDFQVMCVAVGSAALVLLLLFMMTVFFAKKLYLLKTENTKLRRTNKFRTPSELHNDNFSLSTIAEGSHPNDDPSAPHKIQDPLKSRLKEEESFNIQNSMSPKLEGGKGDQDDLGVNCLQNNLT
The experiment in a line: FACS, 10 µg/mL antibody, mouse CSPG5/Expi293F vs Expi293F. As for the experimental part:
as §3, §4

B1: pCANTAB_CSPG5115 phage clone (scFv, V domains shown)
VH: EVQLVQSGAEVKKPGASLKVSCKASGYSFTDYIIHWVRQAPGQSLEWMGWINGGSGVPKYSDKFQGRVTITRDTSANTAYMEIRSLGSEDTAVYYCARGGVCSGDKCYYYGMDVWGQGTTVTVSS
VL: QSVLTQPPSVSVSPGQTASITCSGDKLGDKYSWWYQQKPGQSPLLVIHQDNKRPSGIPERFSGSNSGNTATLTIVGTQAMDEADYYCQAWDRGVVFGGGTKLTVL
notes: also called CSPG5115 scFv on phage
Take B1: the binding result in the assay with human CSPG5-FLAG_Fc and with mouse CSPG5-FLAG_Fc was “binds” throughout.

B2: CSPG5115 scFv-hG4PE(R409K) (Fc fusion)
VH: EVQLVQSGAEVKKPGASLKVSCKASGYSFTDYIIHWVRQAPGQSLEWMGWINGGSGVPKYSDKFQGRVTITRDTSANTAYMEIRSLGSEDTAVYYCARGGVCSGDKCYYYGMDVWGQGTTVTVSS
VL: QSVLTQPPSVSVSPGQTASITCSGDKLGDKYSWWYQQKPGQSPLLVIHQDNKRPSGIPERFSGSNSGNTATLTIVGTQAMDEADYYCQAWDRGVVFGGGTKLTVL
notes: also called anti-CSPG5 scFv-Fc antibody
Consider B2, for which the entries for the “Mean fluorescence intensity ratio” value with monkey CSPG5, with human CSPG5 and with mouse CSPG5 were 3.56 ratio to parent cell line, 3.24 ratio to parent cell line and 3.44 ratio to parent cell line, respectively. Further, the dissociation constant (Kd) in the assay with mouse CSPG5-GST is not above 10 nM.

B3: pCANTAB_CSPG5168 phage clone (scFv, V domains shown)
VH: EVQLVETGGALVQPGGSLRLSCAGSGFIFSKYEMTWVRQAPGKGLEWVSTIGSLGLKTFYTDSVKGRFTTSRDNSRDTLFLQMDNLRVEDTAIYFCVKGGIRRADYWGKGTLVTVSS
VL: EIVMTQSPATLSLSPGERATLSCRASQSVSSYLAWYQQKPGQAPRLLIYDASNRATGIPARFSGSGSGTDFTLTISSLEPEDFAVYYCQQRSNWPLTFGGGTKVEIK
notes: also called CSPG5168 scFv on phage
Consider B3, for which the binding result with human CSPG5-FLAG_Fc and in the assay with mouse CSPG5-FLAG_Fc was “binds” throughout.

B4: pCANTAB_CSPG5206 phage clone (scFv, V domains shown)
VH: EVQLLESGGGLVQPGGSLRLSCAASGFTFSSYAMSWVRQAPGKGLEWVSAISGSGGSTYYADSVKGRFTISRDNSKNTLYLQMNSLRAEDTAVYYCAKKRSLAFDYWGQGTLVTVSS
VL: QSALTQPASVSGSPGQSITISCTGTSTDVNGYNYVSWYQQYAGKAPKLIIFDVSKRPSGVSNRFSGSKSGDTASLTISGLQAEDEADYHCSSYNRKRPPVLFGGGTKLTVL
notes: also called CSPG5206 scFv on phage
B4: the binding result with human CSPG5-FLAG_Fc and with mouse CSPG5-FLAG_Fc was “binds” each time.

B5: pCANTAB_CSPG5207 phage clone (scFv, V domains shown)
VH: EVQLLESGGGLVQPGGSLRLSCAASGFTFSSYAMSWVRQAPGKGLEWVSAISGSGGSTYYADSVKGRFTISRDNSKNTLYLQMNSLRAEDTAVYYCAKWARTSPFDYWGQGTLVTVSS
VL: QSALTQPASVSGSPGQSITISCTGTSTDVNGYNYVSWYQQYAGKAPKLIIFDVSKRPSGVSNRFSGSKSGDTASLTISGLQAEDEADYHCSSYTPSRARVLFGGGTKLTVL
notes: also called CSPG5207 scFv on phage
Regarding B5, the binding result with human CSPG5-FLAG_Fc and with mouse CSPG5-FLAG_Fc was “binds” in each case.

B6: pCANTAB_CSPG5201 phage clone (scFv, V domains shown)
VH: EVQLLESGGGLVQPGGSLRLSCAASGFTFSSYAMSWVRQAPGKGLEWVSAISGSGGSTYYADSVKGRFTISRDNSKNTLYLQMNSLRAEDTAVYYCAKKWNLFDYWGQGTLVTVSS
VL: QSALTQPASVSGSPGQSITISCTGTSTDVNGYNYVSWYQQYAGKAPKLIIFDVSKRPSGVSNRFSGSKSGDTASLTISGLQAEDEADYHCSSYRRLRLPVLFGGGTKLTVL
notes: also called CSPG5201 scFv on phage
Turning to B6, the binding result with human CSPG5-FLAG_Fc and in the assay with mouse CSPG5-FLAG_Fc was “binds” in each case.

B7: pCANTAB_CSPG5234 phage clone (scFv, V domains shown)
VH: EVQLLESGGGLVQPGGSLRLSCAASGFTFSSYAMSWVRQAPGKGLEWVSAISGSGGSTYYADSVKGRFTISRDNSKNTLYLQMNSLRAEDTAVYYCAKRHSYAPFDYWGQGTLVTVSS
VL: QSALTQPASVSGSPGQSITISCTGTSTDVNGYNYVSWYQQYAGKAPKLIIFDVSKRPSGVSNRFSGSKSGDTASLTISGLQAEDEADYHCSSYRPKARSVLFGGGTKLTVL
notes: also called CSPG5234 scFv on phage
Turning to B7, the binding result in the assay with human CSPG5-FLAG_Fc and in the assay with mouse CSPG5-FLAG_Fc was “binds” throughout.

B8: pCANTAB_CSPG5230 phage clone (scFv, V domains shown)
VH: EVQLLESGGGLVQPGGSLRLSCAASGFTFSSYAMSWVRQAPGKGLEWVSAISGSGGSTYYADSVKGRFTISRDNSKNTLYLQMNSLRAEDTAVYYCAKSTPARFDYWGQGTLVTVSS
VL: QSALTQPASVSGSPGQSITISCTGTSTDVNGYNYVSWYQQYAGKAPKLIIFDVSKRPSGVSNRFSGSKSGDTASLTISGLQAEDEADYHCSSYHTRPATVLFGGGTKLTVL
notes: also called CSPG5230 scFv on phage
On to B8, for which the binding result in the assay with human CSPG5-FLAG_Fc and with mouse CSPG5-FLAG_Fc was “binds” throughout.

B9: pCANTAB_CSPG5214 phage clone (scFv, V domains shown)
VH: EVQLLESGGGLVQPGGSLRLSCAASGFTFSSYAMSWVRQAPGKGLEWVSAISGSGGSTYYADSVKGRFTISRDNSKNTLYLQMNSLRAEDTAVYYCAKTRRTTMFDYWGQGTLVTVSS
VL: QSALTQPASVSGSPGQSITISCTGTSTDVNGYNYVSWYQQYAGKAPKLIIFDVSKRPSGVSNRFSGSKSGDTASLTISGLQAEDEADYHCSSYNPHHSGVLFGGGTKLTVL
notes: also called CSPG5214 scFv on phage
With B9, the binding result with human CSPG5-FLAG_Fc and in the assay with mouse CSPG5-FLAG_Fc was “binds” throughout.

B10: pCANTAB_CSPG5219 phage clone (scFv, V domains shown)
VH: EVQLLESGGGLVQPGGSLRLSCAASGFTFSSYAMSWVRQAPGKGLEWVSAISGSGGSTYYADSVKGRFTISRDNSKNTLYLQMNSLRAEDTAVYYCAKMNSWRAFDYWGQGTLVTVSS
VL: EIVLTQSPGTLSLSPGERATLSCRASQSVSSSYLAWYQQKPGQAPRLLIYGASSRATGIPDRFSGSGSGTDFTLTISRLEPEDFAVYYCQQLRRKGSTFGQGSKVEIK
notes: also called CSPG5219 scFv on phage
Take B10: the binding result with human CSPG5-FLAG_Fc and with mouse CSPG5-FLAG_Fc was “binds” each time.

B11: pCANTAB_CSPG5120 phage clone (scFv, V domains shown)
VH: EVQLVQSGGGLVQPGGSLRLSCAASGFTFSNYWMTWVRQAPGEGPEWVANINQDGSQKYYVDSVKGRFTISRDNAKNSLNLQMNNLRAEDTALYYCAKSNAMDVWGQGTLVTVSS
VL: DIVMTQSPLSLPVTPGEPASISCRSSESLLHSNGYNYLNWYLQKPGQSPQLLIYLGSHRASGVPDRLSGSGSDTDFTLKISRVEAEDVGIYYCMQGRQTPITFGGGTKLEIK
notes: also called CSPG5120 scFv on phage
On to B11, for which the binding result with human CSPG5-FLAG_Fc and with mouse CSPG5-FLAG_Fc was “binds” throughout.

Source of the values: patent US20210269548A1 (Kyowa Kirin, published 2021).
